Drawing on patent US7381537B2, “Use of inhibitors of glutaminyl cyclases for treatment and prevention of disease” (Probiodrug AG, priority 2003, dated 2008), this text covers Km, kcat and kcat/Km for one protein.

Holding throughout (assay): purified protein, by the assay type;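 also: initial rates read in microplates at 30 °C, with enzyme activity quantified against an ammonia calibration curve recorded under the same assay conditions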
Substrate in series [1]: N=C(N)NCCC[C@H](NC(=O)[C@H](Cc1ccccc1)NC(=O)[C@@H](N)CCC(N)=O)C(=O)N[C@@H](Cc1c[nH]cn1)C(=O)N[C@@H](CC(=O)O)C(=O)N[C@@H](CO)C(=O)NCC(=O)N[C@@H](Cc1ccc(O)cc1)C(=O)N[C@@H](CCC(=O)O)C(N)=O
As to conditions: other: recombinant human QC, buffer solution containing 1% DMSO; pH 8.8.

Substrate in series [2]: CC(C)C[C@H](NC(=O)[C@H](CCCCN)NC(=O)[C@H](CCC(N)=O)NC(=O)[C@H](Cc1c[nH]cn1)NC(=O)[C@H](Cc1c[nH]cn1)NC(=O)[C@@H](NC(=O)[C@H](CCC(=O)O)NC(=O)[C@H](Cc1ccc(O)cc1)NC(=O)CNC(=O)[C@H](CO)NC(=O)[C@H](CC(=O)O)NC(=O)[C@H](Cc1c[nH]cn1)NC(=O)[C@H](CCCNC(=N)N)NC(=O)[C@H](Cc1ccccc1)NC(=O)[C@@H](N)CCC(N)=O)C(C)C)C(=O)N[C@H](C(=O)N[C@@H](Cc1ccccc1)C(=O)N[C@@H](Cc1ccccc1)C(=O)N[C@@H](C)C(N)=O)C(C)C
As to conditions: other: recombinant human QC, buffer solution containing 1% DMSO; pH 8.8.

Substrate in series [3]: CC(C)C[C@H](NC(=O)[C@H](CCCNC(=N)N)NC(=O)[C@H](CCCCN)NC(=O)[C@H](Cc1ccccc1)NC(=O)C[C@@H](N)CCC(N)=O)C(=O)N[C@@H](C)C(N)=O
As to conditions: other: text b245; pH 8.8.

Substrate in series [4]: C[C@H](NC(=O)[C@H](C)NC(=O)[C@H](CO)NC(=O)[C@H](C)NC(=O)[C@H](C)NC(=O)[C@@H](N)CCC(N)=O)C(N)=O
As to conditions: other: Table 6, influence of substrate length; pH 8.8.

Substrate in series [5]: C[C@H](NC(=O)[C@H](C)NC(=O)[C@H](C)NC(=O)[C@H](C)NC(=O)[C@@H](N)CCC(N)=O)C(N)=O
As to conditions: other: Table 6, influence of substrate length; pH 8.8.

B1: human QC (Homo sapiens) (protein)
chain: VSPSASAWPEEKNYHQPAILNSSALRQIAEGTSISEMWQNDLQPLLIERYPGSPGSYAARQHIMQRIQRLQADWVLEIDTFLSQTPYGYRSFSNIISTLNPTAKRHLVLACHYDSKYFSHWNNRVFVGATDSAVPCAMMLELARALDKKLLSLKTVSDSKPDLSLQLIFFDGEEAFLHWSPQDSLYGSRHLAAKMASTPHPPGARGTSQLHGMDLLVLLDLIGAPNPTFPNFFPNSARWFERLQAIEHELHELGLLKDHSLEGRYFQNYSYGGVIQDDHIPFLRRGVPVLHLIPSPFPEVWHTMDDNEENLDESTIDNLNKILQVFVLEYLHL
The term Km denotes the concentration of substrate that gives half-maximal velocity. Broadly, the kcat is the number of substrate molecules converted per active site and unit of time at saturation. Usually kcat/Km stands for the turnover number divided by the Michaelis constant. With B1, the Km in series [1] was 155 ± 4 µM; in series [2], 162 ± 12 µM; in series [3], 2500 ± 200 µM; in series [4], 79 ± 6 µM; in series [5], 65 ± 3 µM. For the same protein, the kcat in series [1] was 41.4 ± 0.4 s⁻¹; in series [2], 62 ± 3 s⁻¹; in series [3], 3.5 ± 0.1 s⁻¹; in series [4] it was 55.3 ± 1.6 s⁻¹; in series [5], 60.5 ± 0.7 s⁻¹. Also, the catalytic efficiency (kcat/Km) stood at 267000 ± 4000 M⁻¹ s⁻¹ in series [1]; 383000 ± 10000 M⁻¹ s⁻¹ in series [2]; 1300 ± 100 M⁻¹ s⁻¹ in series [3]; 700000 ± 33000 M⁻¹ s⁻¹ in series [4]; 1.174e+06 ± 43000 M⁻¹ s⁻¹ in series [5].
